The target of the assay is T1, 重组N蛋白 (新冠病毒 (SARS-CoV-2), UniProt P0DTC9 1-419).
T1 construct: also called 新冠病毒N蛋白
The assay is described as follows: indirect ELISA. On the technique in general: An ELISA detects its analyte on a solid surface through an enzyme-linked reagent.

B1: 单抗阻断剂A3-4 (antibody, V domains shown)
VH: EVQLEESGGGLVQPGGSRKLSCIASGIIFHNFGMHWIRQAPEKGLEWVAYISGLSRNISYADTVKGRFTISRDNPKNTLFLQMTSLRSEDTAMYYCSRGWAYDAAFWGQGTLVTVS
VL: DVVMTQTPLTLSVTIGQPASFSCKSSRSLLSSNGKIYLNWLLQRPGQSPKRLIYLVSKLDSGVPDRFTGSGSGTDFTLQINRVEAEDLGVYYCVQGTHFPLTFGAGTKLELKR
notes: also called 新冠病毒检测用单抗阻断剂
With B1, the binding result is “no binding”.
